How the values were obtained:
[1] = target: Mannose 6-phosphate (M6P) receptor purified from bovine liver, coupled to NHS-Sepharose 4B FF resin (bovine); test: M6P receptor affinity column, 0-1 mM then 5 mM M6P elution; GBA activity in fractions (FIG. 1B)
[2] = target: Mannose 6-phosphate (M6P) receptor purified from bovine liver, coupled to NHS-Sepharose 4B FF resin (bovine); test: M6P receptor affinity column, 0-1 mM then 5 mM M6P elution; GBA activity in fractions (FIG. 1A)

Sequence of Mannose 6-phosphate (M6P) receptor purified from bovine liver, coupled to NHS-Sepharose 4B FF resin (bovine) (P08169 45-2499): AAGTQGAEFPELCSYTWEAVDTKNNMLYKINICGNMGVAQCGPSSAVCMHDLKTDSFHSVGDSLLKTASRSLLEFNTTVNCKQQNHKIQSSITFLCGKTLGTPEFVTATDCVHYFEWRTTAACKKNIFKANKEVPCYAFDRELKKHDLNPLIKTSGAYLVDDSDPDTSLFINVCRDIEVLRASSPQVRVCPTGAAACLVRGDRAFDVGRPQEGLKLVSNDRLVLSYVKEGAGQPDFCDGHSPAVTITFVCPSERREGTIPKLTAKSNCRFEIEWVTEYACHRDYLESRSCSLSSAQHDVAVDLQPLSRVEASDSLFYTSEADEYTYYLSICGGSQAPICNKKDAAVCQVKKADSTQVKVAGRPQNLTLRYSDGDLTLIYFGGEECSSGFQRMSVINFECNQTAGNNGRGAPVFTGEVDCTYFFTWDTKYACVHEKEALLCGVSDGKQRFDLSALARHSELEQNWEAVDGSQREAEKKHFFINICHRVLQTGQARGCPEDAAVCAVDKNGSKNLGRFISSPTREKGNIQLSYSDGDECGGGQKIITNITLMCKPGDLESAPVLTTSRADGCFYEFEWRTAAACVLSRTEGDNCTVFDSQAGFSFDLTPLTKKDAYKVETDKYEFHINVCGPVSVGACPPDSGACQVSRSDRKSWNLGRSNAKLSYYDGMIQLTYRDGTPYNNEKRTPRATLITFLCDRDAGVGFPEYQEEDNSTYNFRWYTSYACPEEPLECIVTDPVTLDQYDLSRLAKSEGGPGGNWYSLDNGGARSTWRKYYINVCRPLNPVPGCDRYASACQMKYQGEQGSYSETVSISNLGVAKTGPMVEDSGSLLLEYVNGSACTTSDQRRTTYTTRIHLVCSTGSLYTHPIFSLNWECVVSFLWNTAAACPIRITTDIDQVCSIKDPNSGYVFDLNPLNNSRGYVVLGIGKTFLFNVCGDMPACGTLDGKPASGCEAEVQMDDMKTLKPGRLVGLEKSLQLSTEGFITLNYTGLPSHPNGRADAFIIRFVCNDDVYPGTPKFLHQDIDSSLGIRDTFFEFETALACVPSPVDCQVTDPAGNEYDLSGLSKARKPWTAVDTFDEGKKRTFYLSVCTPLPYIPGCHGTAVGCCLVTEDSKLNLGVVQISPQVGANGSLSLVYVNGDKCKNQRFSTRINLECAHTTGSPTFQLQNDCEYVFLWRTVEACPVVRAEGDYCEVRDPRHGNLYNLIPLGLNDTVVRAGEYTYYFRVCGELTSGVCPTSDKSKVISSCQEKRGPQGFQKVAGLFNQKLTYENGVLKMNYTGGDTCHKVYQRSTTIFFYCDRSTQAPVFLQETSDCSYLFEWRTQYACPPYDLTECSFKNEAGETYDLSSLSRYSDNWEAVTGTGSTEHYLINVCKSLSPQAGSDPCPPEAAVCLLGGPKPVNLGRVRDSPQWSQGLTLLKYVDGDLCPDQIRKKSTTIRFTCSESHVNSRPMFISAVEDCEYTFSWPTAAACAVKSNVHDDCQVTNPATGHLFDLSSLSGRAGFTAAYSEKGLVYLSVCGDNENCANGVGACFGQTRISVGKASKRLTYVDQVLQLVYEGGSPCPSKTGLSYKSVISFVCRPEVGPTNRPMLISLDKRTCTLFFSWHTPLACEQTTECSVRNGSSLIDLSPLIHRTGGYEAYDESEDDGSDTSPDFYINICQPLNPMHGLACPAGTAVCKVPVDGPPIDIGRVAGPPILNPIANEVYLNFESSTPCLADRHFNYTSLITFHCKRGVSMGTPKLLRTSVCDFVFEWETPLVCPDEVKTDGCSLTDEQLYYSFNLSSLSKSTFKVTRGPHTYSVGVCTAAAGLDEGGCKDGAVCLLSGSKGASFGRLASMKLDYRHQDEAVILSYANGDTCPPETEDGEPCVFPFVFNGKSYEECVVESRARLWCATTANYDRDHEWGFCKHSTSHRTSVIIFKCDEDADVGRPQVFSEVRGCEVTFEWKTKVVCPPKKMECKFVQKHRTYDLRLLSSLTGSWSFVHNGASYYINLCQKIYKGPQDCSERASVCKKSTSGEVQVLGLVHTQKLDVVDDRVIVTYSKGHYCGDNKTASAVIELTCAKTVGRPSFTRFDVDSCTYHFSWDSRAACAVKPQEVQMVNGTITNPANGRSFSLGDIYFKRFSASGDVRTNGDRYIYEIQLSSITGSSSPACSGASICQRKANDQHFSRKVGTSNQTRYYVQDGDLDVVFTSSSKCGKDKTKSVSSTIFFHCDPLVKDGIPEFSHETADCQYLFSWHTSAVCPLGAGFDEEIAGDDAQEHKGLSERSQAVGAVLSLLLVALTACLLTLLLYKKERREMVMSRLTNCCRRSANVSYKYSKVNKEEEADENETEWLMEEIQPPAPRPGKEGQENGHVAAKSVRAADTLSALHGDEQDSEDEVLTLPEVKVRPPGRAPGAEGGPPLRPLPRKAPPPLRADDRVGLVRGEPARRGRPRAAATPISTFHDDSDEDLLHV

| percent of GBA activity eluted after the start of the M6P gradient (retained on the receptor column) [1] [%] | percent of the retained GBA activity eluted only after the addition of 5 mM M6P [1] [%] | percent of sample eluted prior to the start of the M6P gradient (not retained on the receptor column) [2] [%] | Substance |
| --- | --- | --- | --- |
| 77 | 35 | – | highly phosphorylated human acid β-glucocerebrosidase (HP-GBA), treated with GlcNAc-phosphotransferase and uncovering enzyme (from UniProt P04062 40-536) |
| – | – | > 99 | human acid β-glucocerebrosidase (GBA), partially purified, before phosphorylation (from UniProt P04062 40-536) (enzyme) |
